According to patent US20250361320A1:

Target: human CEACAM5 on cells (MKN45, BxPC-3, Ls174T, HCT116-huCEACAM5) (human) (UniProt P06731)
Test: flow cytometry on BxPC-3 cells (medium, 60,000 receptors/cell)

Sequence of human CEACAM5 on cells (MKN45, BxPC-3, Ls174T, HCT116-huCEACAM5) (human) (P06731 35-685 T210S limits assumed): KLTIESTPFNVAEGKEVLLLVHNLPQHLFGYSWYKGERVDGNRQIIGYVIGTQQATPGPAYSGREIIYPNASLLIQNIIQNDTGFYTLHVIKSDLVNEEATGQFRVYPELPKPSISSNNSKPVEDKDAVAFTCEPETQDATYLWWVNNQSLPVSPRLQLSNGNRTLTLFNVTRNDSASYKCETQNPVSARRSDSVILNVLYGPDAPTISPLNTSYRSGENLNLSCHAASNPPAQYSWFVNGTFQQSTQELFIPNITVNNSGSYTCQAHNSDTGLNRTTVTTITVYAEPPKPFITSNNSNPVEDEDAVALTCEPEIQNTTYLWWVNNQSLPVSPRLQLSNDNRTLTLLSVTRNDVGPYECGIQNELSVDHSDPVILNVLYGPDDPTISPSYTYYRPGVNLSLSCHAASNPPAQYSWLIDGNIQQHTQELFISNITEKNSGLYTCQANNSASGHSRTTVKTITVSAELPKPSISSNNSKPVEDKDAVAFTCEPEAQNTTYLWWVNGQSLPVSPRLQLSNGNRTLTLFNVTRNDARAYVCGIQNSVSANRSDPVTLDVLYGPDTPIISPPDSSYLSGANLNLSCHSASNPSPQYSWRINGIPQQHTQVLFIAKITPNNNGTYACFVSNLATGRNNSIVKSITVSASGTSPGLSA

An EC50 (read off the curve) of 8 nM was found for mAb Control 3 (antibody) in this work.
